US20250381289A1 (Genmab, published 2025)

What was measured:
[1] = target: T1, cMET on EGFR and cMET co-expressed tumor cell lines (UniProt P08581 25-1390, limits assumed); test: flow cytometry, MKN-45 cells
T1 construct: whole, on cells

human cMET-Fc = target: T2, human cMET-Fc (human, UniProt P08581 25-932); test: blocking ELISA: coated human cMET-Fc, antibody titrated, then human HGF-His (blocked ligand), anti-His-HRP
T2 construct: not shown: Fc part, not described

[2] = target: T1, cMET on EGFR and cMET co-expressed …; test: flow cytometry, MKN-45 cells; remark: listed apart in the source
[3] = target: T3, EGFR on EGFR and cMET co-expressed tumor cell lines (UniProt P00533 25-1210, limits assumed); test: flow cytometry, EBC-1 cells (co-express EGFR and cMET; both arms contribute)
T3 construct: whole, on cells

[4] = target: T1, cMET on EGFR and cMET co-expressed …; test: as above
Human cMET = target: T4, Human cMET; test: ELISA, plate coated with 100 ng/well human cMET recombinant protein, HRP anti-human Fc, OD450
T4 construct: also called human cMET recombinant protein
T4 chain: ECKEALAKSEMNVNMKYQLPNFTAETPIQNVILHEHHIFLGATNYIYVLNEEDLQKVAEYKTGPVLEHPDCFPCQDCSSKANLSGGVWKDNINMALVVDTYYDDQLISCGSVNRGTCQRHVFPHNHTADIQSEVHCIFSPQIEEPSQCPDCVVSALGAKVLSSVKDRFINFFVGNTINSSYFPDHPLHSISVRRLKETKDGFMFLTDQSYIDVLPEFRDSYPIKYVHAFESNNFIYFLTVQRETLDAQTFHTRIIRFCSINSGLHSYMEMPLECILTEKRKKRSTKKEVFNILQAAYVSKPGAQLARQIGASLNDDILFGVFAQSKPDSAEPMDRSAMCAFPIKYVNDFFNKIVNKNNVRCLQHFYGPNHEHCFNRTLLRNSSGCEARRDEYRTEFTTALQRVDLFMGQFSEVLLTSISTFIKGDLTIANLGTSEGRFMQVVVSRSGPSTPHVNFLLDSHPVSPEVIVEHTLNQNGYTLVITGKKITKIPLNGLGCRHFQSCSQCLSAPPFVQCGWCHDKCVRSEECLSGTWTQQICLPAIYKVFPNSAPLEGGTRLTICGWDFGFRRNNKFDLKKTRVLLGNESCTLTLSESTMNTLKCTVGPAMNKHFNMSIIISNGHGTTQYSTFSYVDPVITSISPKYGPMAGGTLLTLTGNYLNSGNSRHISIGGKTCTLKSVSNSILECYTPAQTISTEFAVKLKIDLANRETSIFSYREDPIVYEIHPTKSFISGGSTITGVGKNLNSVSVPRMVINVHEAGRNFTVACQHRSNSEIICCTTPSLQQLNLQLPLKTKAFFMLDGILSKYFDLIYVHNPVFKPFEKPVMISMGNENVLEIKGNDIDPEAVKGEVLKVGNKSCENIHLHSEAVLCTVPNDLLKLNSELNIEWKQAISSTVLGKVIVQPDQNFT

[5] = target: T3, EGFR on EGFR and cMET co-expressed …; test: flow cytometry on SNU-5 cells (co-express EGFR and cMET), PE anti-human Fc; signal of the whole bispecific, not resolved by arm
[6] = target: T1, cMET on EGFR and cMET co-expressed …; test: as above
[7] = target: T3, EGFR on EGFR and cMET co-expressed …; test: flow cytometry on EBC-1 cells (co-express EGFR and cMET), PE anti-human Fc; signal of the whole bispecific, not resolved by arm
[8] = target: T1, cMET on EGFR and cMET co-expressed …; test: as above
Human EGFR = target: T5, Human EGFR (human, UniProt P00533); test: ELISA, plate coated with 100 ng/well human EGFR recombinant protein, HRP anti-human Fc, OD450
T5 construct: recombinant protein coated on the ELISA plate; also called human EGFR recombinant protein

[9] = target: T3, EGFR on EGFR and cMET co-expressed …; test: flow cytometry on CAL-27 cells (co-express EGFR and cMET), PE anti-human Fc; signal of the whole bispecific, not resolved by arm
[10] = target: T1, cMET on EGFR and cMET co-expressed …; test: as above
[11] = target: T1, cMET on EGFR and cMET co-expressed …; test: flow cytometry, NCI-H1975 cells
[12] = target: T1, cMET on EGFR and cMET co-expressed …; test: flow cytometry, NCI-H441 cells
[13] = target: T1, cMET on EGFR and cMET co-expressed …; test: flow cytometry, MKN-45 cells; remark: listed apart in the source

B1: Telisotuzumab (antibody, V domains shown)
VH: QVQLVQSGAEVKKPGASVKVSCKASGYIFTAYTMHWVRQAPGQGLEWMGWIKPNNGLANYAQKFQGRVTMTRDTSISTAYMELSRLRSDDTAVYYCARSEITTEFDYWGQGTLVTVSS
VL: DIVMTQSPDSLAVSLGERATINCKSSESVDSYANSFLHWYQQKPGQPPKLLIYRASTRESGVPDRFSGSGSGTDFTLTISSLQAEDVAVYYCQQSKEDPLTFGGGTKVEIK
In the case of B1, the “EC50 (read off the curve)” value [1] is reported as roughly 0.8 nM, the “IC50 (read off the curve)” value (human cMET-Fc) is reported as roughly 1 nM and the “EC50 (read off the curve)” value [2] is reported as roughly 1 nM.

B2: Bsab 44 (bispecific antibody, human IgG1, kappa, L234A L235A)
anti EGFR knob chain (scFab): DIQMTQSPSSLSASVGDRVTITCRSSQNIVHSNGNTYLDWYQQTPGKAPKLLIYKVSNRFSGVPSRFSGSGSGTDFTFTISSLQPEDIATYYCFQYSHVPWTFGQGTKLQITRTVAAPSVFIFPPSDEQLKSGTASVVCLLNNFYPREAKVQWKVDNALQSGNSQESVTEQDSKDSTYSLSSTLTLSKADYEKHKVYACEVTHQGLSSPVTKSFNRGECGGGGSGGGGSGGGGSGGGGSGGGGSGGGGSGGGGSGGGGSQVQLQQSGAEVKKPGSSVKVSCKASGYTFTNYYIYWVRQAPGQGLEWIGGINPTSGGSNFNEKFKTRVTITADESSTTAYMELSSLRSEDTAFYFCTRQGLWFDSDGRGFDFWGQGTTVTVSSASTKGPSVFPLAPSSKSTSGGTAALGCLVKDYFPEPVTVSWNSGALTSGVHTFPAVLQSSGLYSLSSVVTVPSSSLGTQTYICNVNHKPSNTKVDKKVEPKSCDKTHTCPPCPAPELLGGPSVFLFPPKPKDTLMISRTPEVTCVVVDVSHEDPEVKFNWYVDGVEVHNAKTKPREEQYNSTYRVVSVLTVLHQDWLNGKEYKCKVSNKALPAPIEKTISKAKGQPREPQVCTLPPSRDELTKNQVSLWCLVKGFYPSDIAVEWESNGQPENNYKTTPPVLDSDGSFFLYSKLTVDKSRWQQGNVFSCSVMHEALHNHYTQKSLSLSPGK
anti cMET hole chain (scFab): DIQMTQSPSSLSASVGDRVTITCKSSQSLLYTSSQKNYLAWYQQKPGKAPKLLIYWASTRESGVPSRFSGSGSGTDFTLTISSLQPEDFATYYCQQYYAYPWTFGQGTKVEIKRTVAAPSVFIFPPSDEQLKSGTASVVCLLNNFYPREAKVQWKVDNALQSGNSQESVTEQDSKDSTYSLSSTLTLSKADYEKHKVYACEVTHQGLSSPVTKSFNRGECGGGGSGGGGSGGGGSGGGGSGGGGSGGGGSGGGGSGGGGSEVQLVESGGGLVQPGGSLRLSCAASGYTFTSYWLHWVRQAPGKCLEWVGMIDPSNSDTRFNPNFKDRFTISADTSKNTAYLQMNSLRAEDTAVYYCATYRSYVTPLDYWGQGTLVTVSSASTKGPSVFPLAPSSKSTSGGTAALGCLVKDYFPEPVTVSWNSGALTSGVHTFPAVLQSSGLYSLSSVVTVPSSSLGTQTYICNVNHKPSNTKVDKKVEPKSCDKTHTCPPCPAPEAAGGPSVFLFPPKPKDTLMISRTPEVTCVVVDVSHEDPEVKFNWYVDGVEVHNAKTKPREEQYNSTYRVVSVLTVLHQDWLNGKEYKCKVSNKALPAPIEKTISKAKGQPREPQVYTLPPCREEMTKNQVSLSCAVKGFYPSDIAVEWESNGQPENNYKTTPPVLDSDGSFFLVSKLTVDKSRWQQGNVFSCSVMHEALHNHYTQKSLSLSPGK
B2 was tested, and the “EC50 (read off the curve)” value [3] was roughly 2 nM and the “EC50 (read off the curve)” value [4] was roughly 2 nM.

B3: AZD9592 (bispecific antibody, human IgG1, kappa, lambda)
anti-EGFR heavy chain: QVQLVQSGAEVKKPGSSVKVSCKASGGTFSDNDFSWVRQAPGQGLEWMGAIVAVFRTETYAQKFQDRVKITADISTRTTYMELSSLRSEDTAVYYCARRLMSAISGPGAPLLMWGQGTLVTVSSASTKGPSVCPLAPSSKSTSGGTAALGCLVKDYFPEPVTVSWNSGALTSGVHTFPAVLQSSGLYSLSSVVTVPSSSLGTQTYICNVNHKPSNTKVDKRVEPKSVDKTHTCPPCPAPEFEGGPSVFLFPPKPKDTLMISRTPEVTCVVVDVSHEDPEVKFNWYVDGVEVHNAKTKPREEQYNSTYRVVSVLTVLHQDWLNGKEYKCKVSNKALPASIEKTISKAKGQPREPQVYTLPPCREEMTKNQVSLWCLVKGFYPSDIAVEWESNGQPENNYKTTPPVLDSDGSFFLYSKLTVDKSRWQQGNVFSCSVMHEALHNHYTQKSLSLSPGK
anti-EGFR light chain: QSALTQPRSVSGSPGQSVTISCTGTSSDVGGYNYVSWYQQHPGKAPKLMIYDVSKRPSGVPDRFSGSKSGNTASLTISGLQAEDEADYYCSSYTSSDTLEIFGGGTKLTVLGQPKAAPSVTLFPPCSEELQANKATLVCLISDFYPGAVTVAWKADSSPVKAGVETTTPSKQSNNKYAASSYLSLTPEQWKSHRSYSCQVTHEGSTVEKTVAPTEVS
anti-cMET heavy chain: QVQLVQSGAEVKKPGASVKVSCKASGYTFTDYYIHWVRQATGQGLEWMGWMNPNSGNTGYAQKFQGRVTMTRDTSISTAYMELSSLRSEDTAVYYCARGQGYTHSWGQGTMVTVSSASTKGPSVFPLAPSSKSTSGGTAALGCLVKDYFPEPVTVSWNSGALTSGVHTFPAVLQSSGLYSLSSVVTVPSSSLGTQTYICNVNHKPSNTKVDKRVEPKSCDKTHTCPPCPAPEFEGGPSVFLFPPKPKDTLMISRTPEVTCVVVDVSHEDPEVKFNWYVDGVEVHNAKTKPREEQYNSTYRVVSVLTVLHQDWLNGKEYKCKVSNKALPASIEKTISKAKGQPREPQVCTLPPSREEMTKNQVSLSCAVKGFYPSDIAVEWESNGQPENNYKTTPPVLDSDGSFFLVSKLTVDKSRWQQGNVFSCSVMHEALHNHYTQKSLSLSPGK
anti-cMET light chain: DIQMTQSPSTLSASVGDRVTITCRASEGIYHWLAWYQQKPGKAPKLLIYKASSLASGVPSRFSGSGSGTEFTLTISSLQPDDFATYYCQQYSNYPPTFGGGTKLEIKRTVAAPSVFIFPPSDEQLKSGTASVVCLLNNFYPREAKVQWKVDNALQSGNSQESVTEQDSKDSTYSLSSTLTLSKADYEKHKVYACEVTHQGLSSPVTKSFNRGEC
With B3 the “EC50 (read off the curve)” value (Human cMET) was roughly 0.07 nM, the “EC50 (read off the curve)” value [5] was roughly 3 nM and the “EC50 (read off the curve)” value [6] was roughly 3 nM. The “EC50 (read off the curve)” value [7] was roughly 2 nM, the “EC50 (read off the curve)” value [8] was roughly 2 nM and the “EC50 (read off the curve)” value (Human EGFR) was roughly 1 nM. The “EC50 (read off the curve)” value [9] was roughly 10 nM and the “EC50 (read off the curve)” value [10] was roughly 10 nM.

B4: Onartuzumab (antibody, V domains shown)
VH: EVQLVESGGGLVQPGGSLRLSCAASGYTFTSYWLHWVRQAPGKGLEWVGMIDPSNSDTRFNPNFKDRFTISADTSKNTAYLQMNSLRAEDTAVYYCATYRSYVTPLDYWGQGTLVTVSS
VL: DIQMTQSPSSLSASVGDRVTITCKSSQSLLYTSSQKNYLAWYQQKPGKAPKLLIYWASTRESGVPSRFSGSGSGTDFTLTISSLQPEDFATYYCQQYYAYPWTFGQGTKVEIK
In the case of B4, the “EC50 (read off the curve)” value [11] is reported as roughly 0.4 nM, the “EC50 (read off the curve)” value [12] is reported as roughly 0.7 nM and the “EC50 (read off the curve)” value [13] is reported as roughly 1 nM.
